# Where a chain is given by its changes, count along the chain named. Names and notes keep the numbering of the source.
# B1: 6-phosphogluconate dehydrogenase (6PGDH) (Thermotoga maritima MSB8) (protein)
# chain: MKSHIGLIGLAVMGQNLALNIARKGYKVSVYNRTAQRTEEFVKNRVTNEEIEPHYDIESFVKSLERPRKIILMVKAGKPVDDTISQLLPHLEPGDLIIDGGNSHYMDTERRFKELSEKGILFLGMGVSGGEYGALHGPSLMPGGSREAYNLVEEILLEIAAKTEDGPCCTYVGERSAGHFVKMVHNGIEYAIMQAIAEVYHIMRDVLSLSSEEMSSIFEEWNRGELSSFLVEITYKILRKKDEETGKPMVDVILDKAEQKGTGKWTSQAALDLGIPTPSINLAVVERVISHFKDIRTRLSKLYNKRRSATQGSEEFLRDLRNSLFFAMFMAFSQGMWLIAEASKEFGYGVSLSEVLRIWKGGCIIRAKLIDTLRRYISNENAYLLENEEVMNLLKGKIDSLKNILKASIENEIPVPVLSSSYNYFMSLTEERLPANLIQAQRDFFGAHTFERVDREGVFHINWEEGEIG
# B2: 6-phosphogluconate dehydrogenase (6PGDH) (Thermotoga maritima MSB8; R33I/T34I) (protein)
# chain: B1 chain with R33I, T34I
# B3: 6-phosphogluconate dehydrogenase (6PGDH) (Thermotoga maritima MSB8; A11G/R33I/T34I) (protein)
# chain: B1 chain with A11G, R33I, T34I
# B4: 6-phosphogluconate dehydrogenase (6PGDH) (Thermotoga maritima MSB8; A11G/D82L/Q86L/R33I/T34I/T83L) (protein)
# chain: B1 chain with A11G, R33I, T34I, D82L, T83L, Q86L
# B5: 6-phosphogluconate dehydrogenase (6PGDH) (Thermotoga maritima MSB8; A11G/A447V/D294V/D82L/I120F/K27R/N387S/Q86L/R33I/T34I/T83L/Y383C) (protein)
# chain: MKSHIGLIGLGVMGQNLALNIARKGYRVSVYNIIAQRTEEFVKNRVTNEEIEPHYDIESFVKSLERPRKIILMVKAGKPVDLLISLLLPHLEPGDLIIDGGNSHYMDTERRFKELSEKGFLFLGMGVSGGEYGALHGPSLMPGGSREAYNLVEEILLEIAAKTEDGPCCTYVGERSAGHFVKMVHNGIEYAIMQAIAEVYHIMRDVLSLSSEEMSSIFEEWNRGELSSFLVEITYKILRKKDEETGKPMVDVILDKAEQKGTGKWTSQAALDLGIPTPSINLAVVERVISHFKVIRTRLSKLYNKRRSATQGSEEFLRDLRNSLFFAMFMAFSQGMWLIAEASKEFGYGVSLSEVLRIWKGGCIIRAKLIDTLRRYISNENACLLESEEVMNLLKGKIDSLKNILKASIENEIPVPVLSSSYNYFMSLTEERLPANLIQAQRDFFGVHTFERVDREGVFHINWEEGEIG
# B6: 6-phosphogluconate dehydrogenase (6PGDH) (Thermotoga maritima MSB8; A11G/A447V/D294V/D82L/F326S/F60Y/I120F/K118N/K27R/N387S/Q86L/R33I/T34I/T83L/Y383C) (protein)
# chain: B5 chain with F60Y, K118N, F326S
# What was measured:
# [1] = biological target: glucose-6-phosphate dehydrogenase (G6PDH) (Thermotoga maritima, UniProt Q9X0N9); assay: specific activity of purified enzyme; type: biochemical; settings: co-substrate glucose 6-phosphate
# Chain of glucose-6-phosphate dehydrogenase (G6PDH) (Q9X0N9 whole entry): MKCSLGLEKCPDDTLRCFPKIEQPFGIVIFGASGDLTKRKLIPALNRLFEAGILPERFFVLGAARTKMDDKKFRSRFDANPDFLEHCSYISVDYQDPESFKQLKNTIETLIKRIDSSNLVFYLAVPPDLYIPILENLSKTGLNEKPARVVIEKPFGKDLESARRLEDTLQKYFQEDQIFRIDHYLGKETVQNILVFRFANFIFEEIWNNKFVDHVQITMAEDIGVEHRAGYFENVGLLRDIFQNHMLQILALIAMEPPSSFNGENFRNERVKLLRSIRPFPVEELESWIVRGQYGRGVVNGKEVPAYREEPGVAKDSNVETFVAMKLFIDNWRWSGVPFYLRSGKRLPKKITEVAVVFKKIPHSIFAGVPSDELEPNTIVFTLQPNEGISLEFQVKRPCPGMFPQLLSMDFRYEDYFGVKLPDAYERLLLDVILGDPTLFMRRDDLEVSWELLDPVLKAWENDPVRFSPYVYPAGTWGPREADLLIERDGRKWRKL
# [2] = substrate: NC(=O)c1ccc[n+]([C@@H]2O[C@H](COP(=O)(O)OP(=O)(O)OC[C@H]3O[C@@H](n4cnc5c(N)ncnc54)[C@H](OP(=O)(O)O)[C@@H]3O)[C@@H](O)[C@H]2O)c1; assay: steady-state kinetics of purified enzyme; type: biochemical, Thermotoga maritima; settings: apparent constants; co-substrate 6-phosphogluconate; assay details in supplement
# [3] = substrate: NC(=O)c1ccc[n+]([C@@H]2O[C@H](COP(=O)([O-])O)[C@@H](O)[C@H]2O)c1; assay: steady-state kinetics of purified enzyme; type: biochemical, Thermotoga maritima; settings: apparent constants; co-substrate 6-phosphogluconate; assay details in supplement
Molecule,specific activity of purified enzyme [1],Km [2] [mM],kcat [2] [s⁻¹],kcat/Km [2] [M⁻¹ s⁻¹],Km [3] [mM],kcat [3] [s⁻¹],kcat/Km [3] [M⁻¹ s⁻¹]
NC(=O)c1ccc[n+]([C@@H]2O[C@H](COP(=O)([O-])O)[C@@H](O)[C@H]2O)c1 [NMN^+],color intensities of colonies positively correlated with the specific activities of the purified dehydrogenases on NMN^+,,,,,,
B1,,0.0012 ± 0.0001,15.9 ± 0.2,1.34e+07,30.6 ± 1.7,1.3 ± 0.1,42
B2,,11.5 ± 1.1,14.8 ± 0.7,1300,37.9 ± 3.6,1.7 ± 0.1,46
B3,,2.1 ± 0.1,28.3 ± 0.6,13200,20.7 ± 0.7,10.2 ± 0.2,490
B4,,0.39 ± 0.02,21.1 ± 0.3,53700,27.5 ± 1.2,19.3 ± 0.4,700
B5,,0.22 ± 0.01,21.9 ± 0.2,101000,15.1 ± 0.6,18.9 ± 0.4,1250
B6,,0.21 ± 0.01,23.6 ± 0.3,113000,16.0 ± 1.1,25.8 ± 0.8,1620

# From paper PMC8580058 (ACS catalysis, 2019)
